Laboratory results from publication PMC8543943, “Structure-guided steric hindrance engineering of Bacillus badius phenylalanine dehydrogenase for efficient L-homophenylalanine synthesis” (Biotechnology for Biofuels, 2021).

Legend:
Assay in all cases: purified protein
Format in all cases: biochemical, Pseudobacillus badius
purified protein [1] = substrate: O=C(O)C(=O)Cc1ccccc1; conditions: reductive amination, 2 M NH4Cl/NH4OH pH 9.5, 0.5 mM NADH, 30 °C
purified protein [2] = substrate: O=C(O)C(=O)CCc1ccccc1; conditions: reductive amination, 2 M NH4Cl/NH4OH pH 9.5, 0.5 mM NADH, 30 °C
purified protein [3] = substrate: NC(=O)C1=CN([C@@H]2O[C@H](COP(=O)(O)OP(=O)(O)OC[C@H]3O[C@@H](n4cnc5c(N)ncnc54)[C@H](O)[C@@H]3O)[C@@H](O)[C@H]2O)C=CC1; conditions: reductive amination, 2 M NH4Cl/NH4OH pH 9.5, 20 mM 2-OPBA, 30 °C, varied: cofactor

B1: BbPheDH (Pseudobacillus badius) (protein)
chain: SLVEKTSIIKDFTLFEKMSEHEQVVFCNDPATGLRAIIAIHDTTLGPALGGCRMQPYNSVEEALEDALRLSKGMTYKCAASDVDFGGGKAVIIGDPQKDKSPELFRAFGQFVDSLGGRFYTGTDMGTNMEDFIHAMKETNCIVGVPEAYGGGGDSSIPTAMGVLYGIKATNKMLFGKDDLGGVTYAIQGLGKVGYKVAEGLLEEGAHLFVTDINEQTLEAIQEKAKTTSGSVTVVASDEIYSQEADVFVPCAFGGVVNDETMKQFKVKAIAGSANNQLLTEDHGRHLADKGILYAPDYIVNSGGLIQVADELYEVNKERVLAKTKHIYDAILEVYQQAELDQITTMEAANRMCEQRMAARGRRNSFFTSSVKPKWDIRN
notes: His-tagged, full length, pET-28a (+), expressed in E. coli BL21 (DE3), Ni-NTA purified
Work on B1 yielded a Km (purified protein [1]) of 300 ± 40 µM, a kcat (purified protein [1]) of 115 ± 6 s⁻¹ and a kcat/Km (purified protein [1]) of 370000 ± 45000 M⁻¹ s⁻¹. For the same protein, the Km (purified protein [2]) was 600 ± 60 µM, the kcat (purified protein [2]) was 11 ± 1 s⁻¹ and the kcat/Km (purified protein [2]) was 17000 ± 1000 M⁻¹ s⁻¹. It also gave a Km (purified protein [3]) of 65 ± 3 µM, a kcat (purified protein [3]) of 8 ± 1 s⁻¹ and a kcat/Km (purified protein [3]) of 115000 ± 14000 M⁻¹ s⁻¹.
